Laboratory results from patent US20100311184A1, “AZO HETEROCYCLIC DYES AND THEIR BIOLOGICAL CONJUGATES” (AAT BIOQUEST, INC., priority 2009, published 2010).
Where no end group is shown, it is not given here. Compound 12 = dye made from 2-amino-6-nitrobenzothiazole and 3-(1'-oxo-3'-carboxypropylamino)-N,N-dimethylaniline

Target: HIV-1 protease (Human immunodeficiency virus type 1 group M subtype B, UniProt P04585)
Assay: Fluorogenic HIV protease assay with FRET peptides (FIG. 3)
Type: biochemical
Settings: FRET peptide substrate, purified enzyme
Excerpt: Inhibition of HIV-1 protease represents an important avenue for AIDS therapy. Currently combination chemotherapy of reverse transcriptase inhibitors and protease inhibitors have shown to suppress the replication of HIV-1 and extend the life expectancy of HIV-1-infected individuals. The following FRET peptides of the instant disclosure are screened for developing a fluorogenic HIV protease assay. The enzyme assays are done with purified enzymes. Absorption spectra were taken with Hitachi U-3010. Endpoint fluorescence assays are run on either BMG NovoStar or Gemini SpectraMax (Molecular Devices). Enzyme kinetic assays are run on FlexStation (Molecular Devices). […] FRET Peptides #6 and #7 might be used for monitoring HIV protease activity in combination with a flow cytometer.
All the above FRET peptides are synthesized using the standard FMOC chemistry. Some of the TQ peptides were prepared using FMOC-Lys (Compound 12)-OH. For the post-labeling of the premade peptides, Dye NHS esters were used for labeling N-terminal amino or ε-amino group of lysine residue. Dye maleimides were used for labeling the SH group of cysteine residues.

Arg-Glu(5-TAMRA)-Val-Ser-Phe-Asn-Phe-Pro-Gln-Ile-Thr-Lys(Compound 12)-Arg ({Arg-Glu(5-TAMRA)}-VSFNFPQITK(Compound 12)R) [FRET peptide #2]
response to HIV-1 protease: excellent response
